The values that follow come from paper PMC4370339 (Journal of molecular biology, 2014).

What is called Kd is the free concentration of one partner at which half of the binding sites on the other are occupied at equilibrium, for simple one-to-one binding.

B1: SecBL75Q (natural protein, Escherichia coli)
chain: MSEQNNTEMTFQIQRIYTKDISFEAPNAPHVFQKDWQPEVKLDLDTASSQLADDVYEVVLRVTVTASLGEETAFQCEVQQGGIFSIAGIEGTQMAHCLGAYCPNILFPYARECITSMVSRGTFPQLNLAPVNFDALFMNYLQQQAGEGTEEHQ
B2: SecB142 parent carrying Q12C (C) (domain or fragment, Escherichia coli, UniProt P0AG86 1-142, looked up)
chain: MSEQNNTEMTFCIQRIYTKDISFEAPNAPHVFQKDWQPEVKLDLDTASSQLADDVYEVVLRVTVTASLGEETAFLCEVQQGGIFSIAGIEGTQMAHCLGAYLPNILFPYARECITSMVSRGTFPQLNLAPVNFDALFMNYLQ
B3: SecB142,E77K parent carrying Q12C (D) (domain or fragment, Escherichia coli, UniProt P0AG86 1-142, looked up)
chain: B2 chain with E77K
B4: SecB wild-type (natural protein, Escherichia coli, UniProt P0AG86 1-155, looked up)
chain: MSEQNNTEMTFQIQRIYTKDISFEAPNAPHVFQKDWQPEVKLDLDTASSQLADDVYEVVLRVTVTASLGEETAFLCEVQQGGIFSIAGIEGTQMAHCLGAYCPNILFPYARECITSMVSRGTFPQLNLAPVNFDALFMNYLQQQAGEGTEEHQDA
B5: SecB wild-type parent carrying Q12C (A) (natural protein, Escherichia coli, UniProt P0AG86 1-155, looked up)
chain: B4 chain with Q12C, C102L
B6: SecB142,E77K parent carrying A129C (d) (domain or fragment, Escherichia coli, UniProt P0AG86 1-142, looked up)
chain: B2 chain with C12Q, E77K, A129C
B7: SecB142 parent carrying A129C (c) (domain or fragment, Escherichia coli, UniProt P0AG86 1-142, looked up)
chain: B2 chain with C12Q, A129C

Where a chain is given by its changes, count along the chain named. Names may count otherwise.

One data set concerns the target SecB (Escherichia coli) (UniProt P0AG86). Briefly: ITC. The settings on record: cited from earlier work.
Data set [1] concerns the target T1, SecA (Escherichia coli, UniProt P10408 1-901). Briefly: SEC-MALS. (In gel filtration, larger molecules generally elute earlier.)
Data set [2] has as its target T2, SecBA129C (A, otherwise wild-type) (Escherichia coli, UniProt P0AG86 1-155, A129C | C102L).
T2 sequence (looked up): B4 chain with C102L, A129C
Briefly: cross-linking.

In data set [3] the target is T3, SecBE77K parent carrying A129C (b) (Escherichia coli, UniProt P0AG86 1-155, E77K | A129C | C102L).
T3 sequence (looked up): B4 chain with E77K, C102L, A129C
Briefly: cross-linking.

The target of data set [4] is B6. Kind of data set: cross-linking.
Data set [5] concerns the target B7. Kind of data set: cross-linking.
The data set “AUC” deals with the molecule itself. Kind of data set: AUC.
The target in data set [6] is T1, SecA. Kind of data set: SEC.
In data set [7] the target is B5. Briefly: cross-linking.
Another data set deals with T4, SecBQ12C E77K (B) (Escherichia coli, UniProt P0AG86 1-155, Q12C | E77K | C102L).
T4 sequence (looked up): B4 chain with Q12C, E77K, C102L
Kind of data set: cross-linking.

T1 sequence (P10408 whole entry): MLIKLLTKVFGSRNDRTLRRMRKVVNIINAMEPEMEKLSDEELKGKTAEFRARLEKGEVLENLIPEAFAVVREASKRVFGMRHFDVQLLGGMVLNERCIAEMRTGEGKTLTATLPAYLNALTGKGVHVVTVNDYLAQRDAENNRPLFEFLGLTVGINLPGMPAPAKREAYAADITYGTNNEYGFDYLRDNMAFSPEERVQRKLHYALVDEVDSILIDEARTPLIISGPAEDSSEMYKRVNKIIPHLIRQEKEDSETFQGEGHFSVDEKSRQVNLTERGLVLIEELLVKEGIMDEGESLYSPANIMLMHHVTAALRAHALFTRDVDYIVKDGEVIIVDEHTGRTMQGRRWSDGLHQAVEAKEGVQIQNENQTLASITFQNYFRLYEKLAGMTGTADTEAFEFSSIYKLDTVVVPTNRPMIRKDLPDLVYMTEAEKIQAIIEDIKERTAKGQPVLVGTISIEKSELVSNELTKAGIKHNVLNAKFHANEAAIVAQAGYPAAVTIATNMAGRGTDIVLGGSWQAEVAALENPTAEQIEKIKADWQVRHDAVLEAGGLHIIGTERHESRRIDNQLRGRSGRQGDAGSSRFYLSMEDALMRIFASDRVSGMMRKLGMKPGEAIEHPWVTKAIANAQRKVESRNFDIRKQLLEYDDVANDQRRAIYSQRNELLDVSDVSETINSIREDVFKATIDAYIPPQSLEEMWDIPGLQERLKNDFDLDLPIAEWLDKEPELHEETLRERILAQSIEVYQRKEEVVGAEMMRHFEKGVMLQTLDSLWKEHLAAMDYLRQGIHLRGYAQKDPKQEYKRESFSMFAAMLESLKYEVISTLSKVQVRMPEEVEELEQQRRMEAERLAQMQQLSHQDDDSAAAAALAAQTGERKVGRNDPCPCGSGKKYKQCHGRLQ

SecA 2-11 (from UniProt P10408): the Kd in the data set with SecB (Escherichia coli) is 30 µM.

B1: the “stoichiometry N” value with SecA [1] is 1 SecA protomers per SecB tetramer.

For the molecule B2, the binding result in data set [2], in data set [3] and in data set [4] was “binds” each time.

Take B3: the binding result in data set [2], in [3] and in data set [5] was “binds” throughout.

As for B4, the binding result in the data set “AUC” is recorded as “binds”. Moreover, in the data set with SecA [6], the “relative affinity (ratio of Kds) against radiolabeled SecB” value is 0.82 unitless.

In the case of B5, the binding result in data set [2] is recorded as “binds”.

As to B6, the binding result in [7] was “binds”.

As for B7, in the data set with SecBQ12C E77K (B), the binding result is reported as “binds”.
